{"source": "the nanobody polyreactivity screen of Harvey et al. (2022)", "data": [{"experiment": "yeast display, Sf9 membrane polyspecificity reagent, FACS + sequencing; frameworks hold sequencing errors", "in_short": "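After 36–48 hours of galactose induction, yeast (Saccharomyces cerevisiae BJ5465) displaying a synthetic nanobody library were stained at 4 °C for 1 hour with 10% biotinylated, detergent-solubilized Sf9 membrane reagent. Streptavidin microbeads enriched the stained cells before FACS sorting into low and high (top ~1%) gates on anti-HA and streptavidin fluorescence. Each clone's polyreactivity label reflects its gate of origin.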", "values": [{"sequence": "QVQLVESGGGLVQAGGSLRLSCAASGRIFYDNAMGWYRQAPGKERELVAAISYSGDSTYYADSVKGRFTISRDNAKNTVYLQMNSLKPEDTAVYYCAAVYISQGAFAYDYWGQGTQVTVSS", "polyreactivity (PSR sort gate)": "low polyreactivity"}, {"sequence": "QVQLVESGGGLVQAGGSLRLSCAASGRIFYDYAMGWYRQAPGKERELVAAISGSGGSTYYADSVKGRFTISRDKAKNTVYLQMNSLQPEDTEVYYCNRYTTRYYPGGDYWGHGTQVTVSS", "polyreactivity (PSR sort gate)": "high polyreactivity"}, {"sequence": "QVQLVESGGGLVQAGGSLRLSCAASGRIFYEYAMGWYRQAPGKERELVAISTSGGNTYYADSVKGRFTISRDNAKNTVYLQMNSLKPEDTAVYYCAARLQYYPYYYWGQGTQVTVSS", "polyreactivity (PSR sort gate)": "high polyreactivity"}, {"sequence": "QVQLVESGGGLVQAGGSLRLSCAASGRIFYEYASGWYRQAPGKERELVAISTSGGNTYYADSVKGRFTISRDNAKNTVYLQMNSLKPDDTAVYYCAARLQYYPYYYWGQGTQVTVSS", "polyreactivity (PSR sort gate)": "high polyreactivity"}, {"sequence": "QVQLVESGGGLVQAGGSLRLSCAASGRIFYFNAMGWYRQAPGKERELVAAISGSGGDTYYADSVKGRFTISRDNAKNTVYLQMNSLNPEDTAVYYCAAEVYTWGQGTQVTVSS", "polyreactivity (PSR sort gate)": "low polyreactivity"}, {"sequence": "QVQLVESGGGLVQAGGSLRLSCAASGRIFYFYAMGWYRQAPGKEREFVATISYTGGSRYYSDSVKGRFTISRDIAKNTVYLQMNSLKPEDTAVYYCAVRGWYPGFRYDYWGQGTQVTVSS", "polyreactivity (PSR sort gate)": "low polyreactivity"}, {"sequence": "QVQLVESGGGLVQAGGSLRLSCAASGRIFYFYAMGWYRQAPGKERELVAGITRSGDSTYADSVKGRFTISRDNAKNTVYLQMNSLKPEDTAVYYCAADFPWSTKSCHPDSGDSWGQGTQVTVSS", "polyreactivity (PSR sort gate)": "low polyreactivity"}, {"sequence": "QVQLVESGGGLVQAGGSLRLSCAASGRIFYFYAMGWYRQAPGKETELVAAISTSGGSTYYADSVKGRFTISRDNEKNTVYLQMNSLKPEYTAVYYCAARFRYYGSEYDYWGQGTQVTVSS", "polyreactivity (PSR sort gate)": "low polyreactivity"}, {"sequence": "QVQLVESGGGLVQAGGSLRLSCAASGRIFYGNAMGWYRQAPGKERELVAAISSGGGSTYYADSVKGRFTISRDNAKNTVYLQMNSLKPEDTAVYYCAADPVHRFPGTGGYWGQGTQVTVSS", "polyreactivity (PSR sort gate)": "low polyreactivity"}, {"sequence": "QVQLVESGGGLVQAGGSLRLSCAASGRIFYGNAMGWYRQAPGKERELVAAISSGTSTNYADSVKGLFTISRDNAKNTVYLQMHCLKPVDTAVYYCAAGSYSLYLYSLYFDFDYWGQGTQVTVSS", "polyreactivity (PSR sort gate)": "low polyreactivity"}, {"sequence": "QVQLVESGGGLVQAGGSLRLSCAASGRIFYGNAMGWYRQAPGKERELVAAISSGTTTNYADSVKGRFTISRDNAKNTVYLQMNSLKPEDTAVYYCAAGSYSRYLYSLYFDFDYWGQGTQVTVSS", "polyreactivity (PSR sort gate)": "low polyreactivity"}, {"sequence": "QVQLVESGGGLVQAGGSLRLSCAASGRIFYGNAMGWYRQAPGKERELVASITSSGSTKYADSVKGRFTISRDNAKNTVYLQMNSLKPEDTAVYYCAASYTKRYDTYAGYDYWGQGTQVTVSS", "polyreactivity (PSR sort gate)": "low polyreactivity"}, {"sequence": "QVQLVESGGGLVQAGGSLRLSCAASGRIFYGNAMGWYRQAPGKESELVASITSSGSTKYADSVKGRFTISRDNAKNTVYLQMYSLKPVDTAVYYCAASSTKRYDTYAGYDYWGQGTQVTVSS", "polyreactivity (PSR sort gate)": "low polyreactivity"}, {"sequence": "QVQLVESGGGLVQAGGSLRLSCAASGRIFYGNAMGWYRQAPGKVRELVAAISSGTSTNYADSVKGRFTISRDNAKNPVYLQMNSLKPEDTAVYYCAAGSYSRYLYSLYFDFDYWGQGTQVTVSS", "polyreactivity (PSR sort gate)": "low polyreactivity"}, {"sequence": "QVQLVESGGGLVQAGGSLRLSCAASGRIFYGNARGWYRQAPGKERELVATISSSGGRTPYADSVKGRFTISRDNAKNTVYLQMNSLKPEDTAVYYCAAQGYWTGYDYWGQGTQVTVSS", "polyreactivity (PSR sort gate)": "high polyreactivity"}, {"sequence": "QVQLVESGGGLVQAGGSLRLSCAASGRIFYGNVMGWYRQAPGKERELVAAITRSGGSTYYADSVKGRFTISRDYAKNTVYLQMNSLKPEDTAVYYSNDALVSRDRSYEYWGQGTQVTVSS", "polyreactivity (PSR sort gate)": "high polyreactivity"}]}]}
